For six molecules, % Binding, EC50 and Kd results are on record in patent publication US20250049970A1, “DLL3 TARGETING PEPTIDES AND CONSTRUCTS THEREOF” (MARIANA ONCOLOGY INC., priority 2023, published 2025).

Experiment [1] has as its target T1, DLL3 on SHP-77 cells (human, UniProt Q9NYJ7 27-618).
T1 construct: SHP-77 cells are human-derived, non-engineered SCLC cells
T1 sequence: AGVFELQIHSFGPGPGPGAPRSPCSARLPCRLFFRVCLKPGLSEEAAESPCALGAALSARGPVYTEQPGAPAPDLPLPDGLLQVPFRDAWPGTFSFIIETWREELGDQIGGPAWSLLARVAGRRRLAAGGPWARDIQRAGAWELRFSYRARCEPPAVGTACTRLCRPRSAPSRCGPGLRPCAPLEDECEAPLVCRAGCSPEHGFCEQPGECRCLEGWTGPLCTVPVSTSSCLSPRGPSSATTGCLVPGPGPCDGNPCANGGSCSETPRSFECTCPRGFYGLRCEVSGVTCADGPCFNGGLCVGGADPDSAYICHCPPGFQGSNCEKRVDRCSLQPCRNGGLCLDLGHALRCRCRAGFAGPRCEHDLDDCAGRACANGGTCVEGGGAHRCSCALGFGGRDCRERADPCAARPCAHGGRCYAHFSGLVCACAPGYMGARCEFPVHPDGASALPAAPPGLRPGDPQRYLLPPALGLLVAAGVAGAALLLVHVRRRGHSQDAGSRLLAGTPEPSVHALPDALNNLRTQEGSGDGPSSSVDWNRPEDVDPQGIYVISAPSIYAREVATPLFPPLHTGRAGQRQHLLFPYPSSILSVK
The experiment can be described thus: [177Lu]Lu-labelled peptide on SHP-77 cells, 1 h 37 C, gamma counter; B = 25<%<=50.

For experiment [2], the target named is DLL3 on CT26.DLL3 cells (Homo sapiens (Human)) (UniProt Q9NYJ7). The experiment can be described thus: [177Lu]Lu-labelled peptide on CT26.DLL3 cells, 1 h 37 C, gamma counter; B = 25<%<=50.
For experiment [3] the target is unchanged. In words: [177Lu]Lu-labelled peptide on CT26.DLL3 cells, 1 h 37 C, gamma counter; A = %<=25.
The target of experiment [4] is Recombinant human DLL3 aa27-215 protein (human) (UniProt Q9NYJ7). The experiment can be described thus: ELISA: anti-DOTA antibody coated on the plate captures the DOTA-containing peptide (titrated 100 nM to 1.69 pM); 2 ug/mL DLL3 aa27-215 (His-tagged) added; detected with anti-His-HRP, OD450; EC50 fitted in GraphPad.
The target in experiment [5] is T2, Biotinylated target ligand human DLL3 (human, UniProt Q9NYJ7 27-492, limits assumed, biotinylated (site not stated)).
T2 sequence: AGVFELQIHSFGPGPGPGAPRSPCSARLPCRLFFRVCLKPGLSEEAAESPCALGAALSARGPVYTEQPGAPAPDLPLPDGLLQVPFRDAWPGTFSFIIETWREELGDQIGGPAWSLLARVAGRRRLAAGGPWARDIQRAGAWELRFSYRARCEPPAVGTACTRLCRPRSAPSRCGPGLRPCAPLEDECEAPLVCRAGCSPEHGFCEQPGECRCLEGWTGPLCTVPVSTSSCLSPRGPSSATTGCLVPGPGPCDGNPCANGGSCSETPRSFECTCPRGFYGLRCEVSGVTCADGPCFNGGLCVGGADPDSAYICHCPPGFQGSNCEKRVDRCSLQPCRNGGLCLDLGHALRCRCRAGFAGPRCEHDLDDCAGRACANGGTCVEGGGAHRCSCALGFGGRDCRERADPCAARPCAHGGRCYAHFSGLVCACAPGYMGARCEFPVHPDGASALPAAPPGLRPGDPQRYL
The experiment can be described thus: SPR, biotinylated human DLL3 on streptavidin chip; A = KD<=1.0 nM. The procedure:
Biotinylated target ligand human DLL3 was immobilized on a streptavidin sensor chip. A reference surface was set up for nonspecific binding and refractive index changes. For analysis of the kinetics of interactions, varying concentrations of samples were injected at a flow rate of 100 μL/minute using running buffer containing 20 mM phosphate buffer with 2.7 mM KCl, 137 mM NaCl, 0.05% Surfactant P20 and 2% DMSO. Sensorgram curves were fitted with 1:1 binding model, and affinity and kinetic parameters were obtained using Biacore Insight evaluation 4.0. software.

Several values for one entry are separate records, joined by “and”; a condition that tells them apart may be missing. Identical values can stand only once. *1 amine or outer side, *2 acyl side, *3 side chain or, on linkers, in order; H or OH if unused. Bridges are numbered along the chain shown (N, C = ends). [ ]: non-standard residue; d: D form. The star is where a group is joined. Ala(piperidin-4-yl) = O=C([C@H](CC1CCN([*:3])CC1)N[*:1])[*:2]; DOTA = O=C(O)CN1CCN(CC(=O)O)CCN(CC(=O)*)CCN(CC(=O)O)CC1; 2Nal = N[C@@H](Cc1ccc2ccccc2c1)C(=O)O; Ile(3-Me) = CCC(C)(C)[C@H](N)C(=O)O; aIle = CC[C@@H](C)[C@H](N)C(=O)O; tBuAla = CC(C)(C)C[C@H](N)C(=O)O; Chg = N[C@H](C(=O)O)C1CCCCC1; αMeP = C[C@@]1(C(=O)O)CCCN1

B1: Cpd No. 314 (peptide)
peptide: Ac-WT[tBuAla]C[Ala(piperidin-4-yl)]N[2Nal]K(DOTA)DCWP-NH2
modifications: disulfide 4-10
SMILES: CC(=O)N[C@@H](Cc1c[nH]c2ccccc12)C(=O)N[C@H](C(=O)N[C@@H](CC(C)(C)C)C(=O)N[C@H]1CSSC[C@@H](C(=O)N[C@@H](Cc2c[nH]c3ccccc23)C(=O)N2CCC[C@H]2C(N)=O)NC(=O)[C@H](CC(=O)O)NC(=O)[C@H](CCCCNC(=O)CN2CCN(CC(=O)O)CCN(CC(=O)O)CCN(CC(=O)O)CC2)NC(=O)[C@H](Cc2ccc3ccccc3c2)NC(=O)[C@H](CC(N)=O)NC(=O)[C@H](CC2CCNCC2)NC1=O)[C@@H](C)O
With B1, the % Binding was > 25% and < 50% in experiment [1]; > 25% and < 50% in experiment [2].
Take Ac-WT[Chg]C[Ala(piperidin-4-yl)]N[2Nal]K(DOTA)DCWP-NH2 (disulfide 4-10) [Cpd No. 324]: the % Binding is below 25% in experiment [3]; > 25% and < 50% in experiment [1].
On to Ac-WT[tBuAla]C[Ala(piperidin-4-yl)]N[2Nal]K(DOTA)DCW[αMeP]-NH2 (bridge 4-10; not fully specified (bridges)) [Cpd No. 437], for which the EC50 in experiment [4] came to 2.86 nM.
Regarding Ac-WT[aIle]C[Ala(piperidin-4-yl)]N[2Nal]K(DOTA)DCWP-NH2 (disulfide 4-10) [Cpd No. 303], in experiment [5], the equilibrium dissociation constant (Kd) was below 1 nM. Moreover, the % Binding in experiment [3] was below 25%; in experiment [1], > 25% and < 50%.
In the case of Ac-WT[Ile(3-Me)]C[Ala(piperidin-4-yl)]N[2Nal]K(DOTA)DCWP-NH2 (disulfide 4-10) [Cpd No. 302], the % Binding is below 25% in experiment [3]; > 25% and < 50% in experiment [1].
Regarding Ac-WT[tBuAla]C[Ala(piperidin-4-yl)]N[2Nal]K(DOTA)DCWP-NH2 (bridge 4-10; not fully specified (bridges)) [Cpd No. 94], the % Binding in experiment [2] is > 25% and < 50%. Moreover, in experiment [4], the EC50 is 2.19 nM.

Broadly, the EC50 is the concentration that produces a half-maximal response. The Kd is a measure of binding affinity in units of concentration. High values mean a looser complex, low ones a tighter complex.
